Article doi:10.1101/2025.11.23.689978
Where “and” joins values, the source holds several entries; their conditions need not be identical. Identical values can stand only once.

Assays:
[1] = target: AimC_(BMbtp14), purified (phage BMBtp14 (B. cereus group phage)); assay: SEC-MALS
[2] = target: AimC_(ϕ106), purified (phage ϕ106 (of Bacillus inaquosorum strain KCTC 13429)); assay: SEC-MALS

stoichiometry N [1] | stoichiometry N [2] | Substance
2 and 4 |  | AimC_(BMbtp14), purified (natural protein)
 | 2 | AimC_(ϕ106), purified (natural protein)
